Measurements from patent US20030068675, “Position dependent recognition of GNN nucleotide triplets by zinc fingers” (published 2003).

Assays:
Assay in all cases: EMSA
Conditions in all cases: tags: MBP fusion
ZFP SBS#1217 = ZFP SBS#1217 (synthetic)
In short: (§1)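 Purified ZFP was titrated against labeled double-stranded target (1 nM or lower, at least 10-fold below expected Kd) carrying the natural binding site with flanks. Binding buffer was 10 mM Tris pH 7.5, 100 mM KCl, 1 mM MgCl2, 0.1 mM ZnCl2, 5 mM DTT, 10% glycerol, 0.02% BSA, with equilibration for at least 45 min. Bound and free target were separated on a 10% polyacrylamide gel.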

ZFP SBS#1150 = ZFP SBS#1150 (synthetic)
In short: as §1

ZFP SBS#498 = ZFP SBS#498 (synthetic, UniProt P08047)
In short: as §1

ZFP SBS#1222 = target: T1, ZFP SBS#1222 (synthetic, UniProt P08047)
T1 chain: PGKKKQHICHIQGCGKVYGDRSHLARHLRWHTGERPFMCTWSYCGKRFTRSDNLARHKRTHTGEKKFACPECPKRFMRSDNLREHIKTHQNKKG
In short: as §1

ZFP SBS#1227 = ZFP SBS#1227 (synthetic)
In short: as §1

ZFP SBS#485 = ZFP SBS#485 (synthetic)
In short: as §1

ZFP SBS#487 = target: T2, ZFP SBS#487 (synthetic)
T2 chain: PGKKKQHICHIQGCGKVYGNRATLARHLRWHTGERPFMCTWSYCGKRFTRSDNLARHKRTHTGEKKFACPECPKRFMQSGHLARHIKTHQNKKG
In short: as §1

ZFP SBS#1238 = target: T3, ZFP SBS#1238 (synthetic)
T3 chain: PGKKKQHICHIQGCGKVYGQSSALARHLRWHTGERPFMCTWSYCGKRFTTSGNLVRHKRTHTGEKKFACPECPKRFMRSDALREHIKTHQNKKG
In short: as §1

ZFP SBS#1218 = ZFP SBS#1218 (synthetic)
In short: as §1

ZFP SBS#1242 = target: T4, ZFP SBS#1242 (synthetic)
T4 chain: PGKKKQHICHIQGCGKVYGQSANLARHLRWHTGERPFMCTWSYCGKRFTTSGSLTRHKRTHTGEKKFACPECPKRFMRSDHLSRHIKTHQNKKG
In short: as §1

ZFP SBS#1243 = target: T5, ZFP SBS#1243 (synthetic)
T5 chain: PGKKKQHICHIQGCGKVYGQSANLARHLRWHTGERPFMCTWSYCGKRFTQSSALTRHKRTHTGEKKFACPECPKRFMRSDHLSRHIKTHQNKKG
In short: as §1

ZFP SBS#1240 = target: T6, ZFP SBS#1240 (synthetic, UniProt P08047)
T6 chain: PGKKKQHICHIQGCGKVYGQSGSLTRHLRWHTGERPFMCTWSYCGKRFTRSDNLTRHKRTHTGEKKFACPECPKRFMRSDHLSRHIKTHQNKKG
In short: as §1

ZFP SBS#1245 = target: T7, ZFP SBS#1245 (synthetic)
T7 chain: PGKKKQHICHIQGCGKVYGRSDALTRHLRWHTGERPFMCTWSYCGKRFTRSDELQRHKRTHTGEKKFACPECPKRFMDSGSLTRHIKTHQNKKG
In short: as §1

ZFP SBS#1244 = ZFP SBS#1244 (synthetic)
In short: as §1

ZFP SBS#1231 = target: T8, ZFP SBS#1231 (synthetic)
T8 chain: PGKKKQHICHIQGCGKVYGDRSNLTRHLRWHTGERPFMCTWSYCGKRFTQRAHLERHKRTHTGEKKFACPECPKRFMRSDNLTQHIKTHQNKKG
In short: as §1

ZFP SBS#1230 = ZFP SBS#1230 (synthetic)
In short: as §1

ZFP SBS#1233 = target: T9, ZFP SBS#1233 (synthetic)
T9 chain: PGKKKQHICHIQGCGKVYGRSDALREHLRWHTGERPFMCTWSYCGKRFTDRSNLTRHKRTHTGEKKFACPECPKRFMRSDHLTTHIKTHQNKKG
In short: as §1

ZFP SBS#1232 = target: T10, ZFP SBS#1232 (synthetic)
T10 chain: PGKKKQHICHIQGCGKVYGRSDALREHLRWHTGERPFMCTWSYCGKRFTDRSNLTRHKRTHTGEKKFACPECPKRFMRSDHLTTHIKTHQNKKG
In short: as §1

ZFP SBS#1213 = target: T11, ZFP SBS#1213 (synthetic)
T11 chain: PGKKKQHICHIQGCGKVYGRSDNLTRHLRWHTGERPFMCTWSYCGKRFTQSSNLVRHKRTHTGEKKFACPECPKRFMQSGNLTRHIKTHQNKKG
In short: as §1

ZFP SBS#1219 = ZFP SBS#1219 (synthetic)
In short: as §1

ZFP SBS#1220 = ZFP SBS#1220 (synthetic)
In short: as §1

ZFP SBS#1221 = ZFP SBS#1221 (synthetic)
In short: as §1

ZFP SBS#1215 = ZFP SBS#1215 (synthetic, UniProt P08047)
In short: as §1

ZFP SBS#937 = ZFP SBS#937 (synthetic)
In short: as §1

ZFP SBS#938 = ZFP SBS#938 (synthetic, UniProt P08047)
In short: as §1

ZFP SBS#1223 = target: T12, ZFP SBS#1223 (synthetic)
T12 chain: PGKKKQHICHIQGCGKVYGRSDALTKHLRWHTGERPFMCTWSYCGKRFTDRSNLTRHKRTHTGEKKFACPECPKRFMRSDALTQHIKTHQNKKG
In short: as §1

ZFP SBS#1141 = target: T13, ZFP SBS#1141 (synthetic)
T13 chain: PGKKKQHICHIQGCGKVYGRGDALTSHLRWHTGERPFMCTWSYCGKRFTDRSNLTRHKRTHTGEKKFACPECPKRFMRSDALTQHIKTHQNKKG
In short: as §1

ZFP SBS#1224 = target: T14, ZFP SBS#1224 (synthetic)
T14 chain: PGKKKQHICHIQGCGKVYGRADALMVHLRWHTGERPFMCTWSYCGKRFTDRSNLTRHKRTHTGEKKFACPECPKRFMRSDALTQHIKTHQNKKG
In short: as §1

ZFP SBS#1139 = target: T15, ZFP SBS#1139 (synthetic)
T15 chain: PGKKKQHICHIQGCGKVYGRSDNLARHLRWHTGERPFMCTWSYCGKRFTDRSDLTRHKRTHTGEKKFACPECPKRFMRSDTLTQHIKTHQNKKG
In short: as §1

ZFP SBS#1228 = target: T16, ZFP SBS#1228 (synthetic)
T16 chain: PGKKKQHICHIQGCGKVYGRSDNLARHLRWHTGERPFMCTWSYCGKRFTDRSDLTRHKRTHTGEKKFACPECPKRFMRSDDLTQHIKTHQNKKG
In short: as §1

ZFP SBS#488 = target: T17, ZFP SBS#488 (synthetic)
T17 chain: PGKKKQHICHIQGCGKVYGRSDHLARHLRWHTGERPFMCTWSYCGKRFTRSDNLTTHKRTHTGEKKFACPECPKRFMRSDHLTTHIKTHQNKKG
In short: as §1

ZFP SBS#1101 = target: T18, ZFP SBS#1101 (synthetic)
T18 chain: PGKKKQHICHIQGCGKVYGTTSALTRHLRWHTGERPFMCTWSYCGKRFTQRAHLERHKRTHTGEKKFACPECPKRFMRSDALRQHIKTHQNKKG
In short: as §1

ZFP SBS#1214 = target: T19, ZFP SBS#1214 (synthetic)
T19 chain: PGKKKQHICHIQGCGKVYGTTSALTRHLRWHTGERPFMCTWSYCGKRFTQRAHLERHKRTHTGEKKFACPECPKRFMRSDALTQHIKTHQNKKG
In short: as §1

ZFP SBS#1212 = target: T20, ZFP SBS#1212 (synthetic, UniProt P08047)
T20 chain: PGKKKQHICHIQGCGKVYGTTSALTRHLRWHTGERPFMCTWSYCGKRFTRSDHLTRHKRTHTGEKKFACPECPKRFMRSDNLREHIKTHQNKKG
In short: as §1

ZFP SBS#1127 = target: T21, ZFP SBS#1127 (synthetic)
T21 chain: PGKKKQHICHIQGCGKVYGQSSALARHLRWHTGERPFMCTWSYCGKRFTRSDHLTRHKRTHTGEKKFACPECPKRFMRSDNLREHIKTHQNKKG
In short: as §1

ZFP SBS#1140 = ZFP SBS#1140 (synthetic)
In short: as §1

ZFP SBS#1229 = target: T22, ZFP SBS#1229 (synthetic)
T22 chain: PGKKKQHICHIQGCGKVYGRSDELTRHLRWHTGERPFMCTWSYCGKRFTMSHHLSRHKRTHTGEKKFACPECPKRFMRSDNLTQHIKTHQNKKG
In short: as §1

ZFP SBS#1230 (synthetic), sequence (chain, as listed by the source): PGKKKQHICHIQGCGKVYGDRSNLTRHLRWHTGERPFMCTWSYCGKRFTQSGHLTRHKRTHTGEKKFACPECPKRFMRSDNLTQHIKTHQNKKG
ZFP SBS#1221 (synthetic), sequence (chain, as listed by the source): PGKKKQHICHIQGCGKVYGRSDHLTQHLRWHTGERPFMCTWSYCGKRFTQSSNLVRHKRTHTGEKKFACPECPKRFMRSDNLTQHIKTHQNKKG
ZFP SBS#1150 (synthetic), sequence (chain, as listed by the source): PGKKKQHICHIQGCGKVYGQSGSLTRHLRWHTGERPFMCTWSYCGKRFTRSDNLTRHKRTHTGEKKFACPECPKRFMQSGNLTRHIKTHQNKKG
ZFP SBS#498, sequence (P08047 other isoform, or with tags, fused parts or gaps): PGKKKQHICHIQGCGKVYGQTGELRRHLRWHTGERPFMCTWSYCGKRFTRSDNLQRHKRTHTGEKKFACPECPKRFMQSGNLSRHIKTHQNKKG
ZFP SBS#1220 (synthetic), sequence (chain, as listed by the source): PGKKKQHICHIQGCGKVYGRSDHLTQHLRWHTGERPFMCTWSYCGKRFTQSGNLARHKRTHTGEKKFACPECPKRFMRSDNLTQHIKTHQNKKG
ZFP SBS#1215, sequence (P08047 other isoform, or with tags, fused parts or gaps): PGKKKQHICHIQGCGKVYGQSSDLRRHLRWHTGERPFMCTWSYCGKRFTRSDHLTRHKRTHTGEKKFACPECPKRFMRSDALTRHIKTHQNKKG
ZFP SBS#1217 (synthetic), sequence (chain, as listed by the source): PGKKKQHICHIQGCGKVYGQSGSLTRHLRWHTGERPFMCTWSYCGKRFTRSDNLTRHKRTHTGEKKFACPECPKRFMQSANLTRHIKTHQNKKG
ZFP SBS#1140 (synthetic), sequence (chain, as listed by the source): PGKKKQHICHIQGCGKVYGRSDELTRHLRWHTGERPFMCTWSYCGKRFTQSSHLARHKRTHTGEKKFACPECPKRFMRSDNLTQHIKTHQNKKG
ZFP SBS#485 (synthetic), sequence (chain, as listed by the source): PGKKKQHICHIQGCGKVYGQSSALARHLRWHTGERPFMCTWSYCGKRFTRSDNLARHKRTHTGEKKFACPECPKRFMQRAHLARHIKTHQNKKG
ZFP SBS#1219 (synthetic), sequence (chain, as listed by the source): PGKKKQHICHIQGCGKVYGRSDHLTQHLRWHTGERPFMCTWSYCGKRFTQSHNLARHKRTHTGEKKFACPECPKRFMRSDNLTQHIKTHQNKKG
ZFP SBS#937 (synthetic), sequence (chain, as listed by the source): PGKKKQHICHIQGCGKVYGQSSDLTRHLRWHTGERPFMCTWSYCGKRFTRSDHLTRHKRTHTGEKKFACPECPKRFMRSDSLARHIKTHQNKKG
ZFP SBS#938, sequence (P08047 other isoform, or with tags, fused parts or gaps): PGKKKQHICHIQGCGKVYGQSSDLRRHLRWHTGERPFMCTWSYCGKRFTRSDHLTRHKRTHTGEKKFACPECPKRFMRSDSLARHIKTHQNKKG
ZFP SBS#1218 (synthetic), sequence (chain, as listed by the source): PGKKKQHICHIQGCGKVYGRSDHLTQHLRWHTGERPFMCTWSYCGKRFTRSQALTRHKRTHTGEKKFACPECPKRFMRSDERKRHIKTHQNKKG
ZFP SBS#1227 (synthetic), sequence (chain, as listed by the source): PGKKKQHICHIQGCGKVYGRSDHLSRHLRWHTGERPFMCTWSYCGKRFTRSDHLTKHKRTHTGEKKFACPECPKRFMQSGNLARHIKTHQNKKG

B1: GAAGAGGCA (dsDNA)
DNA 1: GAAGAGGCA
DNA 2: TGCCTCTTC
With B1 the Kd (ZFP SBS#1217) was 0.004 nM, the Kd (ZFP SBS#1150) was 0.004 nM and the Kd (ZFP SBS#498) was 30 nM.

B2: CAGGAGGGC (dsDNA)
DNA 1: CAGGAGGGC
DNA 2: GCCCTCCTG
Binder B2 has a Kd (ZFP SBS#1222) of 0.155 nM.

B3: GAATAGGGG (dsDNA)
DNA 1: GAATAGGGG
DNA 2: CCCCTATTC
With B3 the Kd (ZFP SBS#1227) was 25 nM.

B4: GGAGAGGTTT (dsDNA)
DNA 1: GGAGAGGTTT
DNA 2: AAACCTCTCC
In the case of B4, the Kd (ZFP SBS#485) is reported as 110 nM and the Kd (ZFP SBS#487) is reported as 76.9 nM.

B5: CTGGATGTT (dsDNA)
DNA 1: CTGGATGTT
DNA 2: AACATCCAG
In the case of B5, the Kd (ZFP SBS#1238) is reported as 0.313 nM.

B6: GCGGTGAGG (dsDNA)
DNA 1: GCGGTGAGG
DNA 2: CCTCACCGC
In the case of B6, the Kd (ZFP SBS#1218) is reported as 0.46 nM.

B7: GGGGTTGAA (dsDNA)
DNA 1: GGGGTTGAA
DNA 2: TTCAACCCC
Work on B7 yielded a Kd (ZFP SBS#1242) of 0.02 nM and a Kd (ZFP SBS#1243) of 0.101 nM.

B8: GGGGAGGCA (dsDNA)
DNA 1: GGGGAGGCA
DNA 2: TGCCTCCCC
For B8, the Kd (ZFP SBS#1240) was 0.056 nM.

B9: GTCGCGGTG (dsDNA)
DNA 1: GTCGCGGTG
DNA 2: CACCGCGAC
Work on B9 yielded a Kd (ZFP SBS#1245) of 0.102 nM and a Kd (ZFP SBS#1244) of 0.044 nM.

B10: AAGGGAGAC (dsDNA)
DNA 1: AAGGGAGAC
DNA 2: GTCTCCCTT
For B10, the Kd (ZFP SBS#1231) was 0.213 nM and the Kd (ZFP SBS#1230) was 0.383 nM.

B11: TGGGACCTG (dsDNA)
DNA 1: TGGGACCTG
DNA 2: CAGGTCCCA
B11 showed a Kd (ZFP SBS#1233) of 0.635 nM and a Kd (ZFP SBS#1232) of 0.113 nM.

B12: GAAGAAGAG (dsDNA)
DNA 1: GAAGAAGAG
DNA 2: CTCTTCTTC
Work on B12 yielded a Kd (ZFP SBS#1213) of 12.3 nM.

B13: AAGGAAAGG (dsDNA)
DNA 1: AAGGAAAGG
DNA 2: CCTTTCCTT
Work on B13 yielded a Kd (ZFP SBS#1219) of 0.68 nM, a Kd (ZFP SBS#1220) of 0.175 nM and a Kd (ZFP SBS#1221) of 1.4 nM.

B14: GTGGGGGCT (dsDNA)
DNA 1: GTGGGGGCT
DNA 2: AGCCCCCAC
B14 gave a Kd (ZFP SBS#1215) of 0.003 nM, a Kd (ZFP SBS#937) of 0.03 nM and a Kd (ZFP SBS#938) of 0.049 nM.

B15: ATGGACTTG (dsDNA)
DNA 1: ATGGACTTG
DNA 2: CAAGTCCAT
Binder B15 has a Kd (ZFP SBS#1223) of 7 nM, a Kd (ZFP SBS#1141) of 1.7 nM and a Kd (ZFP SBS#1224) of 12 nM.

B16: ACGGCCGAG (dsDNA)
DNA 1: ACGGCCGAG
DNA 2: CTCGGCCGT
B16 was tested, and the Kd (ZFP SBS#1139) was 0.535 nM and the Kd (ZFP SBS#1228) was 12 nM.

B17: TGGTAGGGGG (dsDNA)
DNA 1: TGGTAGGGGG
DNA 2: CCCCCTACCA
Binder B17 has a Kd (ZFP SBS#488) of 35 nM.

B18: ATGGGAGTT (dsDNA)
DNA 1: ATGGGAGTT
DNA 2: AACTCCCAT
Work on B18 yielded a Kd (ZFP SBS#1101) of 0.065 nM and a Kd (ZFP SBS#1214) of 0.46 nM.

B19: CAGGGGGTT (dsDNA)
DNA 1: CAGGGGGTT
DNA 2: AACCCCCTG
In the case of B19, the Kd (ZFP SBS#1212) is reported as 0.05 nM and the Kd (ZFP SBS#1127) is reported as 0.1 nM.

B20: AAGGGTGCG (dsDNA)
DNA 1: AAGGGTGCG
DNA 2: CGCACCCTT
Work on B20 yielded a Kd (ZFP SBS#1140) of 0.3 nM and a Kd (ZFP SBS#1229) of 8.2 nM.
